Assay results from patent US20080226630A1.

Experiments:
Experiment in all cases: cell-based or functional assay
[1] = substrate: F protein of RSV strain 18537 (human respiratory syncytial virus strain 18537 (subtype B)) (UniProt P13843)
[2] = substrate: F protein of RSV strain Long (human respiratory syncytial virus strain Long (subtype A)) (UniProt P12568)
[3] = substrate: F protein of RSV strain B1 (human respiratory syncytial virus strain B1 (subtype B)) (UniProt O36634)
Sequence of F protein of RSV strain B1 (human respiratory syncytial virus strain B1 (subtype B)) (O36634 26-574): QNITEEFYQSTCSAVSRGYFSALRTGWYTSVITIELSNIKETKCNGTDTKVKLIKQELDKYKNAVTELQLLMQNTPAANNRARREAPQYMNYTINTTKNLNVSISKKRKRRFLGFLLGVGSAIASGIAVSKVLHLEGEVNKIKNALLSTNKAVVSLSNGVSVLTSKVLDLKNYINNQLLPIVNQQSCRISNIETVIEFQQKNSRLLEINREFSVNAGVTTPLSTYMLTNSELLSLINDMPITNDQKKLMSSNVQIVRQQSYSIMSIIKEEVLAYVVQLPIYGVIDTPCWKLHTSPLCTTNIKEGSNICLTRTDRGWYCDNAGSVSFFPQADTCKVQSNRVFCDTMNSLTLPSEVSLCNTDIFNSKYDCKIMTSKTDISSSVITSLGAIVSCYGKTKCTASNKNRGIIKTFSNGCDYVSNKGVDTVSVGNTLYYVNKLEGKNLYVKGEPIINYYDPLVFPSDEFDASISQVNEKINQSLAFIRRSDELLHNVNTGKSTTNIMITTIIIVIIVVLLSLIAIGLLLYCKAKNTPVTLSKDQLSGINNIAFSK

Sequence of F protein of RSV strain 18537 (human respiratory syncytial virus strain 18537 (subtype B)) (P13843 26-574): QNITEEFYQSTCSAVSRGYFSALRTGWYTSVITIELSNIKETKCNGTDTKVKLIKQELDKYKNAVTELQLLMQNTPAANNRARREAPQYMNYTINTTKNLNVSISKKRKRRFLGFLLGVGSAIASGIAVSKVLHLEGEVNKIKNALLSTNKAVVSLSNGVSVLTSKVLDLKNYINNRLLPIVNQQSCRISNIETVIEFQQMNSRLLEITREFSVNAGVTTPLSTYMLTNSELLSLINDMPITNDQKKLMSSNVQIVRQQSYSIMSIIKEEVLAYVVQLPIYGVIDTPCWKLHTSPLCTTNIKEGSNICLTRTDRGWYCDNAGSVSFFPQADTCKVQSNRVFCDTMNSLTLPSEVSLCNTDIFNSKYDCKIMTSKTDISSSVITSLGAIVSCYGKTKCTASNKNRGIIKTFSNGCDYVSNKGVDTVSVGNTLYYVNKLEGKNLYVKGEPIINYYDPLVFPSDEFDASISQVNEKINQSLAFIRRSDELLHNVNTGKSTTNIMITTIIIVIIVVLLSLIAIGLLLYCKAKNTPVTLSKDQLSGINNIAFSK
Sequence of F protein of RSV strain Long (human respiratory syncytial virus strain Long (subtype A)) (P12568 26-574): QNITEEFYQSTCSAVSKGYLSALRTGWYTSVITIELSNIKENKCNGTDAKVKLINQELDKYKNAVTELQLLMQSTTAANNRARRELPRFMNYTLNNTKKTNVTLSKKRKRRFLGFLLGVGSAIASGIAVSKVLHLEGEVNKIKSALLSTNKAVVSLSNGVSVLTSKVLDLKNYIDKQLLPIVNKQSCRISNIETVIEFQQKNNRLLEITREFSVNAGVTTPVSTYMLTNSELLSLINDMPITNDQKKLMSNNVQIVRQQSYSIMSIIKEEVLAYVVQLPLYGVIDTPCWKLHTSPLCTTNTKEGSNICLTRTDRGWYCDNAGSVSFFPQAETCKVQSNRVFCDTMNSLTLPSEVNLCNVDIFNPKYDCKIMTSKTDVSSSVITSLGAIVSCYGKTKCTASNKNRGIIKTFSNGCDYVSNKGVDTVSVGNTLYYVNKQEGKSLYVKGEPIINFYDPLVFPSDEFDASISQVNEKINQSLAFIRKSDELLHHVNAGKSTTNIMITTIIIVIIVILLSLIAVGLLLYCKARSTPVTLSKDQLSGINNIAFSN

B1: antibody 894 (clone 894) (antibody, human IgG1, kappa, V domains shown)
VH: QVQLVESGGGVVQPGKSLRLSCAASGFRFSDYGMHWVRQAPSKGLEWVAVIWHDGSNIRYADSVRGRFSISRDNSKNTLYLQMNSMRADDTAFYYCARVPFQIWSGLYFDHWGQGTLVTVSS
VL: EIVMTQSPATLSVSPGERATLSCRASQSVGNNLAWYQQRPGQAPRLLIYGASTRATGIPARFSGSGSGTEFTLTISSLQSEDFAVYYCQQYDKWPETFGQGTKVDIKR
**Q.** With B1 as the binder, how does the EC50, PRNT with complement, RSV 18537 [1] read?
**A.** 0.07 µg/mL

**Q.** What about the EC50, PRNT with complement, RSV Long [2] of the same binder?
**A.** 0.08 µg/mL

B2: antibody 818 (clone 818) (antibody, human IgG1, kappa, V domains shown)
VH: QVTLRESGPAVVKPTETLTLTCAFSGFSLNAGRVGVSWIRQPPGQAPEWLARIDWDDDKAFRTSLKTRLSISKDSSKNQVVLTLSNMDPADTATYYCARTQVFASGGYYLYYLDHWGQGTLVTVSS
VL: DIQMTQSPSSLSASVGDRVTITCRASQTIASYVNWYQQKPGRAPSLLIYAASNLQSGVPPRFSGSGSGTDFTLTISGLQPDDFATYYCQQSYSYRALTFGGGTKVEIKR
**Q.** How did the EC50, PRNT with complement, RSV 18537 [1] turn out when B2 was run?
**A.** 0.21 µg/mL

**Q.** What about the EC50, PRNT with complement, RSV Long [2] of the same binder?
**A.** 1.86 µg/mL

**Q.** What about the EC50, PRNT with complement, RSV Long (new determination) [2] of the same binder?
**A.** 0.15 µg/mL

B3: antibody 827 (clone 827) (antibody, human IgG1, kappa, V domains shown)
VH: QVQLVQSGAEVKKPGASVKVSCRVSGHTFTALSKHWMRQGPGGGLEWMGFFDPEDGDTGYAQKFQGRVTMTEDTATGTAYMELSSLTSDDTAVYYCATVAAAGNFDNWGQGTLVTVSS
VL: DIQMTQSPSSLAASVGDRVTITCRASQFISSYLHWYQQRPGKAPKLLMYAASTLQSGVPSRFSGSGSGTDFTLTISSLQPEDFATYYCQQSYTNPYTFGQGTKLEIKR
**Q.** Which results are given for B3?
**A.** EC50, PRNT with complement, RSV 18537 [1]: 0.1 µg/mL; EC50, PRNT with complement, RSV Long [2]: 0.16 µg/mL

B4: antibody 880 (clone 880) (antibody, human IgG1, kappa, V domains shown)
VH: QITLKESGPTLVRPTQTLTLTCTFSGFSLSTSKLGVGWIRQPPGKALEWLALVDWDDDRRYRPSLKSRLTVTKDTSKNQVVLTMTNMDPVDTATYYCAHSAYYTSSGYYLQYFHHWGPGTLVTVSS
VL: DIQMTQSPSSLAASVGDRVTITCRASQTIASYVNWYQQKPGKAPNLLIYAASSLQSGVPSRFSGSGSGTDFTLTISSLQPEDFASYFCQQSYSFPYTFGQGTKLDIKR
**Q.** Which results are given for B4?
**A.** EC50, PRNT with complement, RSV 18537 [1]: 0.95 µg/mL; EC50, PRNT with complement, RSV B1 [3]: 0.4 µg/mL; EC50, PRNT with complement, RSV Long [2]: 0.38 µg/mL

B5: antibody 831 (clone 831) (antibody, human IgG1, kappa, V domains shown)
VH: QVQLVQSGAEVKKPGASVKVSCKASANIFTYAMHWVRQAPGQRLEWMGWINVGNGQTKYSQRFQGRVTITRDTSATTAYMELSTLRSEDTAVYYCARRASQYGEVYGNYFDYWGQGTLVTVSS
VL: DIQMTQSPSTLSASVGDRLTITCRASQNIYNWLAWYQQKPGKAPKLLIYDASTLESGVPSRFSGSGSGTEFTLTISSLQPDDFATYYCQQYNSLSPTFGQGTKVEIKR
**Q.** How did the EC50, PRNT with complement, RSV 18537 [1] turn out when B5 was run?
**A.** 0.72 µg/mL

**Q.** What about the EC50, PRNT with complement, RSV B1 [3] of the same binder?
**A.** 1.66 µg/mL

**Q.** And the EC50, PRNT with complement, RSV Long [2]?
**A.** 0.08 µg/mL

B6: antibody 800 (clone 800) (antibody, human IgG1, kappa, V domains shown)
VH: QVQLVESGGAVVQPGRSLRLSCEVSGFSFSDYGMNWVRQGPGKGLEWVAVIWHDGSNKNYLDSVKGRFTVSRDNSKNTLFLQMNSLRAEDTAVYYCARTPYEFWSGYYFDFWGQGTLVTVSS
VL: AIQLTQSPSSLSASVGDRVTLTCRASQGITDSLAWYQQKPGKAPKVLLYAASRLESGVPSRFSGRGSGTDFTLTISSLQPEDFATYYCQQYSKSPATFGPGTKVEIRR
**Q.** Which results are given for B6?
**A.** EC50, PRNT with complement, RSV B1 [3]: 0.16 µg/mL; EC50, PRNT with complement, RSV Long [2]: 0.15 µg/mL
